Laboratory results: the supplement of paper PMC7125110
± gives the standard error. Variants at the floor of the assay were thinned out.

B1: glmS ribozyme (parent)
chain: AUAAAAGCGCCAGAACUACAGAAAUGUAGUUGACGAGGAGGAGGUUUAUCGAAUUUUCGGCGGAUGCCUCCAAA

Experiments:
Conditions in all cases: with glucosamine-6-phosphate
[1] = variants of: B1; assay: self-cleavage kobs at 160 uM GlcN6P; higher = faster cleavage; RNA array
Procedure, shortened: (§1)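 Barcoded ribozyme variants were transcribed in situ on sequenced MiSeq chips by E. coli RNA polymerase. At 37 °C, a hybridised Cy3 probe tracked them while glucosamine-6-phosphate (40 μM to 10 mM) in HEPES/KCl/Mg(OAc)2 buffer flowed in and tiles were imaged over ~14 h. Per-tile medians of signals normalised to baseline and to non-cleaving reference variants were fit to one- or two-exponential decays, giving kobs. kcat and KM came from weighted Michaelis–Menten fits across concentrations.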

[2] = variants of: B1; assay: self-cleavage kobs at 640 uM GlcN6P; higher = faster cleavage; RNA array
Procedure, shortened: as §1

[3] = variants of: B1; assay: self-cleavage kobs at 2500 uM GlcN6P; higher = faster cleavage; RNA array
Procedure, shortened: as §1

[4] = variants of: B1; assay: self-cleavage kobs at 10000 uM GlcN6P; higher = faster cleavage; RNA array
Procedure, shortened: as §1

| Variant | self-cleavage kobs at 160 uM GlcN6P [1] [s⁻¹] | self-cleavage kobs at 640 uM GlcN6P [2] [s⁻¹] | self-cleavage kobs at 2500 uM GlcN6P [3] [s⁻¹] | self-cleavage kobs at 10000 uM GlcN6P [4] [s⁻¹] |
| --- | --- | --- | --- | --- |
| G7A A12C | < 1e-05 |  |  |  |
| G7C A36G A39G C67U | < 1e-05 | < 1e-05 | < 1e-05 |  |
| A33U G35U A42U G44U | < 1e-05 | < 1e-05 | < 1e-05 |  |
| A12U A15G C16U U31G C71U | 0.000195 ± 6.7e-05 | 0.000442 ± 0.00015 | 0.000331 ± 0.0001 |  |
| C8G G51U A64U | < 1e-05 | < 1e-05 |  |  |
| G40C C50U U57A C58G U65A | < 1e-05 |  | < 1e-05 |  |
| C10G G41C G63U | < 1e-05 | < 1e-05 |  |  |
| G29U U49C C50G C70A | 5.5e-05 ± 2.2e-05 | 0.000125 ± 5.5e-05 |  |  |
| A6U C8U C70U | < 1e-05 |  | < 1e-05 | < 1e-05 |
| A6G A14U A48G G63U | < 1e-05 | < 1e-05 | < 1e-05 |  |
| G59U G60U G62A | < 1e-05 |  | < 1e-05 |  |
| G29C C61U C71U | < 1e-05 |  |  |  |
| U49G G60U | < 1e-05 | < 1e-05 | < 1e-05 |  |
| C8A U30A G37U C58A | < 1e-05 |  |  |  |
| G13C G29U G37C C71U | < 1e-05 |  |  |  |
| U54C U56A G59C U65A | < 1e-05 |  | < 1e-05 |  |
| C11G A33U U49C C50U U65C | < 1e-05 |  |  |  |
| C8U G41U C58U C68A C70G | < 1e-05 |  |  |  |
| C8A A15C C34A G38A C68G | 0.000422 ± 0.00011 | 0.000341 ± 8.5e-05 | 0.00055 ± 0.00013 |  |
| G35A C58G | < 1e-05 |  | < 1e-05 |  |
| G43A U45A C61G | < 1e-05 | < 1e-05 |  |  |
| G29A U46A A53U U56C | < 1e-05 | < 1e-05 |  |  |
| A48G U49C G60A | < 1e-05 | < 1e-05 | < 1e-05 |  |
| A12G G51A | < 1e-05 | < 1e-05 |  | < 1e-05 |
| C10U G13C | < 1e-05 |  |  | < 1e-05 |
| G7U C34G | < 1e-05 | < 1e-05 |  |  |
| C50U U56C C68U C70U | < 1e-05 |  |  |  |
| A12C U31G A42C U69G | 0.000164 ± 3.1e-05 |  | 0.00194 ± 0.00028 |  |

| Variant | self-cleavage kobs at 160 uM GlcN6P [1] [s⁻¹] | self-cleavage kobs at 640 uM GlcN6P [2] [s⁻¹] | self-cleavage kobs at 2500 uM GlcN6P [3] [s⁻¹] | self-cleavage kobs at 10000 uM GlcN6P [4] [s⁻¹] |
| --- | --- | --- | --- | --- |
| A36U U57G | < 1e-05 |  | < 1e-05 | < 1e-05 |
| A14G A36C G44C G51A G62A | < 1e-05 |  |  |  |
| A33U C50U G62C | < 1e-05 | < 1e-05 | < 1e-05 |  |
| A33U G41U A52U | < 1e-05 | < 1e-05 | < 1e-05 |  |
| C10A U31C U57A A64U | < 1e-05 |  |  |  |
| C10A G38A G41U G44A G59U | < 1e-05 | < 1e-05 | < 1e-05 |  |
| U30G G41C G60A | < 1e-05 |  | < 1e-05 |  |
| G37A G60A G66U | < 1e-05 |  |  |  |
| G60A C61U G63A | < 1e-05 |  | < 1e-05 |  |
| A6G U47C C67G | < 1e-05 | < 1e-05 |  |  |
| G13C A36G G63C | < 1e-05 | < 1e-05 |  |  |
| G40A A48G C50G | < 1e-05 |  | < 1e-05 |  |
| G9C G37A U46A A52U G60A C61A | < 1e-05 |  | < 1e-05 |  |
| G13U A15G G35C A52U | < 1e-05 | < 1e-05 | < 1e-05 |  |
| G38C A39G | < 1e-05 | < 1e-05 |  |  |
| G32U A42C | < 1e-05 | < 1e-05 | < 1e-05 |  |
| G38C G43A | < 1e-05 | < 1e-05 | < 1e-05 | < 1e-05 |
| G44U U45G U69A | < 1e-05 |  |  |  |
| G7U G37U | < 1e-05 |  |  | < 1e-05 |
| A6G C50U U55C | < 1e-05 | < 1e-05 | < 1e-05 | < 1e-05 |
| A6G A33G G60C | < 1e-05 | < 1e-05 |  |  |
| G9A A42G G44C U56G U65G | < 1e-05 | < 1e-05 |  |  |
| C58G U69A | 5.46e-05 ± 2.7e-05 | 0.000406 ± 9.6e-05 |  |  |
| U30C C50U U56C | < 1e-05 | < 1e-05 |  |  |
| G40C G44A A53C | < 1e-05 | < 1e-05 | < 1e-05 |  |
| G41U U45C G59U | < 1e-05 | < 1e-05 | < 1e-05 |  |
| G41U G51A | < 1e-05 | < 1e-05 | < 1e-05 | < 1e-05 |
